According to paper PMC11931166, “Heterologous expression and characterization of xylose-tolerant GH 43 family β-xylosidase/α-L-arabinofuranosidase from Limosilactobacillus fermentum and its application in xylan degradation” (Frontiers in Bioengineering and Biotechnology, 2025):

Columns and labels:
[1] = target: T1, LfXyl43 (GH 43 β-xylosidase/α-L-arabinofuranosidase) (Limosilactobacillus fermentum, UniProt A0ABF7R1E2); assay: specific activity of purified enzyme at […] substrate; assay type: biochemical
T1 construct: gene LAF_0405; recombinant rLfXyl43, 551 residues, C-terminal 6× histidine tag
T1 sequence (A0ABF7R1E2 1-551): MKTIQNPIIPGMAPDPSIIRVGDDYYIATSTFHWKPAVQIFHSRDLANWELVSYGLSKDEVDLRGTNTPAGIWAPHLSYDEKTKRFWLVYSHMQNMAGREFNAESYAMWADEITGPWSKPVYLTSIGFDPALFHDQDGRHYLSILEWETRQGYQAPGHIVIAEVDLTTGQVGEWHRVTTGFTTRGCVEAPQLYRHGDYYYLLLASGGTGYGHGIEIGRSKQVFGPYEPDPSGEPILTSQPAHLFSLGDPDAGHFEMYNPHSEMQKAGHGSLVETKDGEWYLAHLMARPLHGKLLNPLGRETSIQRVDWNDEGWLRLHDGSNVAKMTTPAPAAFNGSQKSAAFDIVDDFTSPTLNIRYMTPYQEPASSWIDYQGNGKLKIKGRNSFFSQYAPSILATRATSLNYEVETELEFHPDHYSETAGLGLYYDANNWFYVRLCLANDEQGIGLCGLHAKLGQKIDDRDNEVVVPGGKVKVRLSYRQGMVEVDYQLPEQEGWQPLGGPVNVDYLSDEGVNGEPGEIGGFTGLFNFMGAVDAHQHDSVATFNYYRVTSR

[2] = substrate: OC1OC[C@@H](O[C@@H]2OC[C@@H](O)[C@H](O)[C@H]2O)[C@H](O)[C@H]1O; assay: Michaelis-Menten kinetics, DNSA reducing sugar assay (Km); assay type: biochemical, Limosilactobacillus fermentum; details: catalytic pocket, subsites −[…] and +[…] (predicted)
[3] = substrate: OC1OC[C@@H](O[C@@H]2OC[C@@H](O[C@@H]3OC[C@@H](O)[C@H](O)[C@H]3O)[C@H](O)[C@H]2O)[C@H](O)[C@H]1O; assay: as above; assay type: biochemical, Limosilactobacillus fermentum
[4] = substrate: OC1OC[C@@H](O[C@@H]2OC[C@@H](O[C@@H]3OC[C@@H](O[C@@H]4OC[C@@H](O)[C@H](O)[C@H]4O)[C@H](O)[C@H]3O)[C@H](O)[C@H]2O)[C@H](O)[C@H]1O; assay: as above; assay type: biochemical, Limosilactobacillus fermentum; details: catalytic pocket, Asp15 and Glu188 at the −[…] subsite (predicted)
purified protein [5] = substrate: O=[N+]([O-])c1ccc(O[C@@H]2O[C@@H](CO)[C@H](O)[C@H]2O)cc1; assay: purified protein; assay type: biochemical, Limosilactobacillus fermentum
purified protein [6] = substrate: O=[N+]([O-])c1ccc(O[C@@H]2OC[C@@H](O)[C@H](O)[C@H]2O)cc1; assay: purified protein; assay type: biochemical, Limosilactobacillus fermentum; details: catalytic pocket, Asp15, Asp129 and Glu188 (predicted)

`O=[N+]([O-])c1ccccc1O[C@@H]1OC[C@@H](O)[C@H](O)[C@H]1O` [oNPX, o-nitrophenyl-β-D-xylopyranoside] was tested, and the “Specific activity, U/mg” value [1] was 3.8 ± 0.1 U/mg.

B1: LfXyl43 (GH 43 β-xylosidase/α-L-arabinofuranosidase) (Limosilactobacillus fermentum IFO 3956) (protein)
chain: MKTIQNPIIPGMAPDPSIIRVGDDYYIATSTFHWKPAVQIFHSRDLANWELVSYGLSKDEVDLRGTNTPAGIWAPHLSYDEKTKRFWLVYSHMQNMAGREFNAESYAMWADEITGPWSKPVYLTSIGFDPALFHDQDGRHYLSILEWETRQGYQAPGHIVIAEVDLTTGQVGEWHRVTTGFTTRGCVEAPQLYRHGDYYYLLLASGGTGYGHGIEIGRSKQVFGPYEPDPSGEPILTSQPAHLFSLGDPDAGHFEMYNPHSEMQKAGHGSLVETKDGEWYLAHLMARPLHGKLLNPLGRETSIQRVDWNDEGWLRLHDGSNVAKMTTPAPAAFNGSQKSAAFDIVDDFTSPTLNIRYMTPYQEPASSWIDYQGNGKLKIKGRNSFFSQYAPSILATRATSLNYEVETELEFHPDHYSETAGLGLYYDANNWFYVRLCLANDEQGIGLCGLHAKLGQKIDDRDNEVVVPGGKVKVRLSYRQGMVEVDYQLPEQEGWQPLGGPVNVDYLSDEGVNGEPGEIGGFTGLFNFMGAVDAHQHDSVATFNYYRVTSR
notes: recombinant rLfXyl43, 551 residues, C-terminal 6× histidine tag
Molecule B1 has a Km [2] of 134.7 mM, a Vmax [2] of 241 µmol/min/mg and a kcat [2] of 1740 s⁻¹. It also gave a kcat/Km [2] of 12900 M⁻¹ s⁻¹, a Km [3] of 120.2 mM and a Vmax [3] of 441 µmol/min/mg. The kcat [3] was 3170 s⁻¹, the kcat/Km [3] was 26400 M⁻¹ s⁻¹ and the Km [4] was 84.2 mM. It also gave a Vmax [4] of 488 µmol/min/mg, a kcat [4] of 3530 s⁻¹ and a kcat/Km [4] of 41900 M⁻¹ s⁻¹. For the same molecule, the Km (purified protein [5]) was 1.5 mM, the Vmax (purified protein [5]) was 0.4 µmol/min/mg and the kcat (purified protein [5]) was 2.8 s⁻¹. It also gave a kcat/Km (purified protein [5]) of 1900 M⁻¹ s⁻¹, a Km (purified protein [6]) of 2.0 mM and a Vmax (purified protein [6]) of 19.7 µmol/min/mg. The kcat (purified protein [6]) was 142 s⁻¹.
